# Data published in patent publication US20160068860A1, “TRANSGENIC PLANTS” (CONSEJO SUPERIOR DE INVESTIGACIONES CIENTIFICAS (CSIC), priority 2013, published 2016).
# T1: PYL4C176R F130Y (AtPYL F130Y and C176R)
# T1 chain: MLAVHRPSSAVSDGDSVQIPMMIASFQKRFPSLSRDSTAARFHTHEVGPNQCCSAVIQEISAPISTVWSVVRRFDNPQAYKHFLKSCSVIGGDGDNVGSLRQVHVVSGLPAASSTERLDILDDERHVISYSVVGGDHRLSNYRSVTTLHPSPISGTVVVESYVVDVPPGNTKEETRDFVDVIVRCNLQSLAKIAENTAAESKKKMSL
# T2: PYL4H82R V97A (AtPYL H82 and V97A)
# T2 chain: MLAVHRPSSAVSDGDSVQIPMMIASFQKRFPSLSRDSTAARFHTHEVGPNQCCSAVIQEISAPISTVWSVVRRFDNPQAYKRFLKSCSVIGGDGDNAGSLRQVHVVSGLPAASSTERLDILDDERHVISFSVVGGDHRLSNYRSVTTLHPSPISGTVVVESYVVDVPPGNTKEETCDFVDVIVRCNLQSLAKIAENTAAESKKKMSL
# T3: HAB1 (clade A protein phosphatase 2C) (Arabidopsis thaliana, UniProt Q9CAJ0 23-511, limits assumed)
# T3 sequence (looked up): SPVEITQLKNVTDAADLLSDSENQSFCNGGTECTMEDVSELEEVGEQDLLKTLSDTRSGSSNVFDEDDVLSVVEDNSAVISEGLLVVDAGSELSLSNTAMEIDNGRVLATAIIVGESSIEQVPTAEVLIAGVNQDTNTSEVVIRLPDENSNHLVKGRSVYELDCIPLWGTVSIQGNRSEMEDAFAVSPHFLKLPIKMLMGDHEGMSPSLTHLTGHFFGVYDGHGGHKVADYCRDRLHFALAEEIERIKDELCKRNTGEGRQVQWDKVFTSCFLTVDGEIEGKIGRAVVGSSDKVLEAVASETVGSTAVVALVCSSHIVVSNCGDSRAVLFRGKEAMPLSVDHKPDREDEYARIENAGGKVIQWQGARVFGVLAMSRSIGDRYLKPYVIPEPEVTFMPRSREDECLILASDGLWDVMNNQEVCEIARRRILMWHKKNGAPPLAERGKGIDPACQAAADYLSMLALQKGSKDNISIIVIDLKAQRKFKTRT
# T4: PP2CA (clade A protein phosphatase 2C, At3g11410) (Arabidopsis thaliana, UniProt P49598 1-399, limits assumed)
# T4 sequence (looked up): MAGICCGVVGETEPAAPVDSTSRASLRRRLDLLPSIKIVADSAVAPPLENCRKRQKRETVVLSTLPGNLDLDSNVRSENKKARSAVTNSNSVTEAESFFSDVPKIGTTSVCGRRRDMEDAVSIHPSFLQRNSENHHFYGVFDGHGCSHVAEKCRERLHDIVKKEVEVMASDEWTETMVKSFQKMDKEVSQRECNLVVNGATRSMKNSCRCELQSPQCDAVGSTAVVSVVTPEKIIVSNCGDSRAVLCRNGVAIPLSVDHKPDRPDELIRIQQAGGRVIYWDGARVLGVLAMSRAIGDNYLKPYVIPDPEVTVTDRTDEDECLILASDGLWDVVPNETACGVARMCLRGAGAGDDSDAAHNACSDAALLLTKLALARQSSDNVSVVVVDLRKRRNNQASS
# Columns and labels:
# [1] = biological target: PYR/PYL receptors in the presence of clade A PP2Cs (ternary complexes); conditions: ternary complexes in the presence of certain clade A PP2Cs; read-out: Kd for ABA; cited from earlier work
# [2] = biological target: dimeric PYR/PYL receptors; conditions: read-out: Kd for ABA; cited from earlier work
# [3] = biological target: monomeric PYR/PYL receptors; conditions: read-out: Kd for ABA; cited from earlier work
# [4] = biological target: T1, PYL4C176R F130Y (AtPYL F130Y and C176R)
# [5] = biological target: T2, PYL4H82R V97A (AtPYL H82 and V97A)
# [6] = biological target: T3, HAB1 (clade A protein phosphatase 2C); experiment: cell-based or functional assay
# [7] = biological target: T4, PP2CA (clade A protein phosphatase 2C, …); experiment: cell-based or functional assay
# [8] = biological target: T4, PP2CA (clade A protein phosphatase 2C, …); experiment: yeast two-hybrid growth assay, absence of ABA
# PP2CA [9] = experiment: Yeast two hybrid (Y2H) growth assay with PP2CA; type: cell-based, Arabidopsis; conditions: for interaction with PP2CA in Y2H assay: absence of ABA, growth on medium lacking His and Ade
# Description: We conducted error-prone PCR mutagenesis by amplification of the PYL4 open reading frame using the following primers: FPYL4Ncol, 5″-GCAGCAGCCATGGTTGCCG TTCACCGTCCTTCT and RPYL4EcoRIstop: […] TCT TCTTCTT, and the following conditions: 2 mM dGTP, dCTP and dTTP, 0.5 mM dATP, 12 mM MgCl2 and Taq polymerase. The PCR product was Ncol-EcoRI doubly digested, cloned into the pGBKT7 vector and DH10B cells were transformed by electroporation. Thus, we generated an allele library in E. coli of approximately 10,000 PYL4 mutant clones. […] The library was shuttled to yeast AH109 by co-transformation with pGAD7-PP2CA. Yeast transformants were pooled and clones able to grow in the absence of exogenous ABA in medium lacking histidine and adenine were selected. Yeast plasmids were extracted, sequenced and retransformed in yeast cells to recapitulate the phenotype. Protocols for yeast two hybrid assays were similar to those described previously (Saez et al., 2008).
# [10] = biological target: T4, PP2CA (clade A protein phosphatase 2C, …); experiment: yeast two-hybrid growth assay, presence of ABA
# [11] = test system: Arabidopsis thaliana plants; experiment: Seedling establishment and early seedling growth of OE lines on ABA; type: in vivo; conditions: 0.25 or 0.5 μM ABA
# Description: PYL4 or PYL4 mutants were cloned into pCR8/GW/TOPO entry vector (Invitrogen) and recombined by LR reaction into the gateway compatible ALLIGATOR2 vector (Bensmihen et al., 2004). This construct drives expression of PYL4 under control of the 35S CaMV promoter and introduces a triple HA epitope at the N-terminus of the protein. Selection of transgenic lines is based on the visualization of GFP in seeds, whose expression is driven by the specific seed promoter At2S3. The ALLIGATOR2-35S:3HA-PYL4 or mutant constructs were transferred to Agrobacterium tumefaciens C58C1 (pGV2260) (Deblaere et al., 1985) by electroporation and used to transform Columbia wild type plants by the floral dip method. T1 transgenic seeds were selected based on GFP visualization and sowed in soil to obtain the T2 generation. At least three independent transgenic lines were generated for each construct. Homozygous T3 progeny was used for further studies and expression of HA-tagged protein in 21-d-old seedlings was verified by immunoblot analysis using anti-HA-peroxidase (Roche).
# After surface sterilization of the seeds, stratification was conducted in the dark at 4° C. for 3 d. Approximately 100 seeds of each genotype were sowed on MS plates supplemented with different ABA concentrations per experiment. To score seed germination, radical emergence was analyzed at 72 h after sowing. Seedling establishment was scored as the percentage of seeds that developed green expanded cotyledons and the first pair of true leaves at 7-d.
# PP2CA [12] = experiment: In vitro phosphatase activity assay with pNPP substrate, PP2CA; type: biochemical, Arabidopsis; conditions: absence of ABA
# Description: (§1) Phosphatase activity was measured using as a substrate either pNPP or phosphorylated ΔC-ABF2, ΔC-ABI5 and SLAC11-186 proteins. For the pNPP substrate, assays were performed in a 100 μl solution containing 25 mM Tris-HCl pH 7.5, 2 mM MnCl2 and 5 mM pNPP. Assays contained 2 μM phosphatase (PP2CA or HAB1), 4 μM receptor and the indicated concentrations of ABA. Phosphatase activity was recorded with a ViktorX5 reader at 405 nm every 60 seconds over 30 minutes and the activity obtained after 30 minutes is indicated in the graphics. In order to obtain phosphorylated ΔCABF2, ΔC-ABI5 and SLAC11-186 proteins, OST1 phosphorylation assays were done basically as described previously (Dupeux et al., 2011 b). ΔC-ABF2 and SLAC11-186 N-terminal fragments were prepared as described (Antoni et al., 2012; Vahisalu et al., 2010). ΔC-ABI5 recombinant protein (amino acid residues 1-200, containing the C1, C2 and C3 target sites of ABA-activated SnRK2s) was expressed in the pETM11 vector as described above. The reaction mixture containing the OST1 kinase and either ΔCABF2, ΔC-ABI5 or SLAC11-186 recombinant proteins were incubated for 50 min at room temperature in 30 μl of kinase buffer: 20 mM Tris-HCl pH 7.8, 20 mM MgCl2, 2 mM MnCl2, and 3.5 μCi of γ-32ATP (3000 Ci/mmol). Thus, OST1 was autophosphorylated and in turn it phosphorylated ΔC-ABF2, ΔC-ABI5 and SLAC11-186 proteins. Next, they were used as substrates of PP2CA that was preincubated (or not) for 10 with PYL4 or PYL4A194T (1:10 phosphatase:receptor ratio) either in the absence or presence of 30 μM ABA. The reaction was stopped by adding Laemmli buffer and the proteins were separated by SDS-PAGE using an 8% acrylamide gel and transferred to an Immobilon-P membrane (Millipore). Radioactivity was detected and quantified using a Phosphorimage system (FLA5100, Fujifilm). After scanning, the same membrane was used for Ponceau staining. The data presented are averages of at least three independent experiments.
# PP2CA [13] = biological target: T5, PP2CA (Arabidopsis thaliana, UniProt O80920+P49598, C176R/F130Y); experiment: as above; type: biochemical; conditions: presence of ABA
# T5 construct: made in house; host or cells: E. coli BL21 (DE3)
# Description: as §1
molecule,measurement,setting,value
"CC1=CC(=O)CC(C)(C)[C@@]1(O)/C=C/C(C)=C\C(=O)O [ABA, abscisic acid]",Kd,[1],30 to 60 nM
same,Kd,[2],> 50000 nM
same,Kd,[3],~1000 nM
"PP2CA (clade A protein phosphatase 2C, At3g11410) (protein) MAGICCGVVGETEPAAPVDSTSRASLRRRLDLLPSIKIVADSAVAPPLENCRKRQKRETVVLSTLPGNLDLDSNVRSENKKARSAVTNSNSVTEAESFFSDVPKIGTTSVCGRRRDMEDAVSIHPSFLQRNSENHHFYGVFDGHGCSHVAEKCRERLHDIVKKEVEVMASDEWTETMVKSFQKMDKEVSQRECNLVVNGATRSMKNSCRCELQSPQCDAVGSTAVVSVVTPEKIIVSNCGDSRAVLCRNGVAIPLSVDHKPDRPDELIRIQQAGGRVIYWDGARVLGVLAMSRAIGDNYLKPYVIPDPEVTVTDRTDEDECLILASDGLWDVVPNETACGVARMCLRGAGAGDDSDAAHNACSDAALLLTKLALARQSSDNVSVVVVDLRKRRNNQASS",PP2CA phosphatase activity (pNPP substrate) in the absence of ABA,[4],"although the H82RV97A and F130Y C176R mutations promoted ABA-independent interactions in Y2H assay, they did not affect PP2CA activity in the absence of ABA"
same,PP2CA phosphatase activity (pNPP substrate) in the absence of ABA,[5],"although the H82RV97A and F130Y C176R mutations promoted ABA-independent interactions in Y2H assay, they did not affect PP2CA activity in the absence of ABA"
AtPYL4 wild type polypeptide (At2g38310) (receptor) MLAVHRPSSAVSDGDSVQIPMMIASFQKRFPSLSRDSTAARFHTHEVGPNQCCSAVIQEISAPISTVWSVVRRFDNPQAYKHFLKSCSVIGGDGDNVGSLRQVHVVSGLPAASSTERLDILDDERHVISFSVVGGDHRLSNYRSVTTLHPSPISGTVVVESYVVDVPPGNTKEETCDFVDVIVRCNLQSLAKIAENTAAESKKKMSL,"IC50 of inhibition of HAB1 phosphatase activity (pNPP substrate; 2 µM phosphatase, 4 µM receptor, ABA concentration varied)",[6],0.25 µM
same,"IC50 of inhibition of PP2CA phosphatase activity (pNPP substrate; 2 µM phosphatase, 4 µM receptor, ABA concentration varied)",[7],1 µM
"PYL4C176R F130Y (AtPYL F130Y and C176R) (receptor, also called F130Y C176R) MLAVHRPSSAVSDGDSVQIPMMIASFQKRFPSLSRDSTAARFHTHEVGPNQCCSAVIQEISAPISTVWSVVRRFDNPQAYKHFLKSCSVIGGDGDNVGSLRQVHVVSGLPAASSTERLDILDDERHVISYSVVGGDHRLSNYRSVTTLHPSPISGTVVVESYVVDVPPGNTKEETRDFVDVIVRCNLQSLAKIAENTAAESKKKMSL",binding result,[8],binds
PYL4V97A (AtPYL V97A) (receptor) MLAVHRPSSAVSDGDSVQIPMMIASFQKRFPSLSRDSTAARFHTHEVGPNQCCSAVIQEISAPISTVWSVVRRFDNPQAYKHFLKSCSVIGGDGDNAGSLRQVHVVSGLPAASSTERLDILDDERHVISFSVVGGDHRLSNYRSVTTLHPSPISGTVVVESYVVDVPPGNTKEETCDFVDVIVRCNLQSLAKIAENTAAESKKKMSL,interaction with PP2CA in Y2H assay,PP2CA [9],did not affect the interaction in the absence of ABA
same,yeast growth in Y2H assay with PP2CA,PP2CA [9]; presence of ABA (50 μM),increased yeast growth
same,binding result,[10],binds
same,ABA-mediated inhibition of seedling establishment,[11],enhanced ABA-mediated inhibition of seedling establishment compared to non-transformed plants
"PYL4C176R F130Y: AtPYL4 mutant polypeptide with F130Y and C176R substitutions (SEQ ID NO. 63) (protein, listed as Arabidopsis thaliana) MLAVHRPSSAVSDGDSVQIPMMIASFQKRFPSLSRDSTAARFHTHEVGPNQCCSAVIQEISAPISTVWSVVRRFDNPQAYKHFLKSCSVIGGDGDNVGSLRQVHVVSGLPAASSTERLDILDDERHVISYSVVGGDHRLSNYRSVTTLHPSPISGTVVVESYVVDVPPGNTKEETRDFVDVIVRCNLQSLAKIAENTAAESKKKMSL",interaction with PP2CA in Y2H assay,PP2CA [9],enhanced the interaction of PYL4 and PP2CA in the absence of ABA
same,effect on PP2CA activity,PP2CA [12],did not affect PP2CA activity
same,capacity to inhibit PP2CA,PP2CA [13],lower capacity to inhibit PP2CA
